# B1: Spindle assembly checkpoint serine/threonine-protein kinase BUB1 (Saccharomyces cerevisiae), P41695 (parent)
# chain: MNLDLGSTVRGYESDKDTFPQSKGVSSSQKEQHSQLNQTKIAYEQRLLNDLEDMDDPLDLFLDYMIWISTSYIEVDSESGQEVLRSTMERCLIYIQDMETYRNDPRFLKIWIWYINLFLSNNFHESENTFKYMFNKGIGTKLSLFYEEFSKLLENAQFFLEAKVLLELGAENNCRPYNRLLRSLSNYEDRLREMNIVENQNSVPDSRERLKGRLIYRTAPFFIRKFLTSSLMTDDKENRANLNSNVGVGKSAPNVYQDSIVVADFKSETERLNLNSSKQPSNQRLKNGNKKTSIYADQKQSNNPVYKLINTPGRKPERIVFNFNLIYPENDEEFNTEEILAMIKGLYKVQRRGKKHTEDYTSDKNRKKRKLDVLVERRQDLPSSQPPVVPKSTRIEVFKDDDNPSQSTHHKNTQVQVQTTTSILPLKPVVDGNLAHETPVKPSLTSNASRSPTVTAFSKDAINEVFSMFNQHYSTPGALLDGDDTTTSKFNVFENFTQEFTAKNIEDLTEVKDPKQETVSQQTTSTNETNDRYERLSNSSTRPEKADYMTPIKETTETDVVPIIQTPKEQIRTEDKKSGDNTETQTQLTSTTIQSSPFLTQPEPQAEKLLQTAEHSEKSKEHYPTIIPPFTKIKNQPPVIIENPLSNNLRAKFLSEISPPLFQYNTFYNYNQELKMSSLLKKIHRVSRNENKNPIVDFKKTGDLYCIRGELGEGGYATVYLAESSQGHLRALKVEKPASVWEYYIMSQVEFRLRKSTILKSIINASALHLFLDESYLVLNYASQGTVLDLINLQREKAIDGNGIMDEYLCMFITVELMKVLEKIHEVGIIHGDLKPDNCMIRLEKPGEPLGAHYMRNGEDGWENKGIYLIDFGRSFDMTLLPPGTKFKSNWKADQQDCWEMRAGKPWSYEADYYGLAGVIHSMLFGKFIETIQLQNGRCKLKNPFKRYWKKEIWGVIFDLLLNSGQASNQALPMTEKIVEIRNLIESHLEQHAENHLRNVILSIEEELSHFQYKGKPSRRF
# partner: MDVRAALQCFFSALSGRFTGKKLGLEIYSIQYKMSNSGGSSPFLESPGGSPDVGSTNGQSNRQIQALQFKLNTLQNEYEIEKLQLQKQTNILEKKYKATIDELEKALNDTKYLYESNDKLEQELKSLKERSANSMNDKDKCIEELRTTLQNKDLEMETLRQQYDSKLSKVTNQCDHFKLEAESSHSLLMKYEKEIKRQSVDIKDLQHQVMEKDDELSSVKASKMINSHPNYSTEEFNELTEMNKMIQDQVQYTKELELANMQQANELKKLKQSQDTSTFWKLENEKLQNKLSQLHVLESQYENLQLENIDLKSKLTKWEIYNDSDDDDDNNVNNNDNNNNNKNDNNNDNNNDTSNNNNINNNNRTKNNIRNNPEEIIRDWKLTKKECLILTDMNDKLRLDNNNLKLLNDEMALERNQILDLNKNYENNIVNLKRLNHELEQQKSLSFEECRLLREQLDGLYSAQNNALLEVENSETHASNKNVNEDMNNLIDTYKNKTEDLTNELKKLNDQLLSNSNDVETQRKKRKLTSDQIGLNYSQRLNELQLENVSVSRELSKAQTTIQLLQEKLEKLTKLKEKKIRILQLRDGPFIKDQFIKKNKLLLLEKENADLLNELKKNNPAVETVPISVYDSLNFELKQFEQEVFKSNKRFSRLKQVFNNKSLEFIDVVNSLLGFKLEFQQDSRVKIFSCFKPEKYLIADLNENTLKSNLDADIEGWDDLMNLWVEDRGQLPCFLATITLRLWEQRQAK
# Variants of: B1
# Settings: with mad1_yeast MAD1, P40957
row,effect of a mutation on the interaction,Variant
1,decreasing interaction,K733R

# Source: IntAct's records for PubMed 10837255
